From article PMC7946963 (2021)
Square brackets hold non-standard residues; d marks the D form. Ends that are not written are not given here. pS = N[C@@H](COP(=O)(O)O)C(=O)O

T1: FIP200 Claw F1574Q (human)
T1 chain: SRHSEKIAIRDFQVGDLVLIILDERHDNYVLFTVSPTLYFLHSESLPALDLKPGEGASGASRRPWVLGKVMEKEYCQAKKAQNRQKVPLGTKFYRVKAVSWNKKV

T2: FIP200 Claw R1573E (human)
T2 chain: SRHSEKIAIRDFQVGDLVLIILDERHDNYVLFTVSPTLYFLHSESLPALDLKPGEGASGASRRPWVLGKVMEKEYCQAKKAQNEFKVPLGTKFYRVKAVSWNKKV

T3: FIP200 Claw Y1564S (human)
T3 chain: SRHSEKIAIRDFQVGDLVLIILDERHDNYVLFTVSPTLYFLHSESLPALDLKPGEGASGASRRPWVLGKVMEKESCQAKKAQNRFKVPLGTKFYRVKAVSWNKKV

T4: FIP200 Claw K1569A (human)
T4 chain: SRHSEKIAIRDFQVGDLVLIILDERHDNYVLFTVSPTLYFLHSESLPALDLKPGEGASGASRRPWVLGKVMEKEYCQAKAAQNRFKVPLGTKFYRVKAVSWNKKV

T5: FIP200 Claw domain (residues 1490–1594) (human, UniProt Q8TDY2 1490-1594)
T5 chain: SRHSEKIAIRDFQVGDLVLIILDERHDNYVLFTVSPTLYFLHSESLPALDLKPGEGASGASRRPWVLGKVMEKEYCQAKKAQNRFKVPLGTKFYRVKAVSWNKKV

T6: LC3C (UniProt Q9BXW4 1-126)
T6 chain: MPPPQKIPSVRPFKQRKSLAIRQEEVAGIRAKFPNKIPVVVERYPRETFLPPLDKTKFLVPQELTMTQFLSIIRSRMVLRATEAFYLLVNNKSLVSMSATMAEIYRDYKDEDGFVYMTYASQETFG


How the values were obtained:
Assay in all cases: FP
FIP200 Claw F1574Q = molecular target: T1, FIP200 Claw F1574Q
FIP200 Claw R1573E = molecular target: T2, FIP200 Claw R1573E
FIP200 Claw Y1564S = molecular target: T3, FIP200 Claw Y1564S
FIP200 Claw K1569A = molecular target: T4, FIP200 Claw K1569A
[1] = molecular target: T5, FIP200 Claw domain (residues 1490–1594)
LC3A = LC3A (UniProt Q9H492 1-121)
LC3C = molecular target: T6, LC3C
GABARAPL2 = GABARAPL2 (UniProt P60520 1-117)
LC3B = LC3B (UniProt Q9GZQ8 1-120)
1 = 1 (UniProt Q9H0R8 1-117)
Sequence of 1 (Q9H0R8 whole entry): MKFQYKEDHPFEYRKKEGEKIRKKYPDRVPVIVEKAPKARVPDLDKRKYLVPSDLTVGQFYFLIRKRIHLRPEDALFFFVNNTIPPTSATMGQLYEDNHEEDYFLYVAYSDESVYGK

Sequence of GABARAPL2 (P60520 whole entry): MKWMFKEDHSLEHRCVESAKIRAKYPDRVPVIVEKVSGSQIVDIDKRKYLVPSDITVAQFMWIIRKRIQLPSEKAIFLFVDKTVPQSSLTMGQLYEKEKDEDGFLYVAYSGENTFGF

Binder	Kd (FIP200 Claw F1574Q)	Kd (FIP200 Claw R1573E)	Kd (FIP200 Claw Y1564S)	Kd (FIP200 Claw K1569A)	Kd [1]	Kd (LC3A)	Kd (LC3C)	Kd (GABARAPL2)	Kd (LC3B)	Kd 1
TASDDSDIVTLEPPK (domain or fragment) [CCPG1 FIR2 (residues 99–113), recombinant]	120 µM	138 µM	79.5 µM	105 µM						
TASDDSDIVTLEPPK (also: N-terminal FITC only in fluorescence polarisation assay form) [CCPG1 FIR2 synthetic peptide (residues 99–113)]					12.3 µM	37.3 µM	39.8 µM	123 µM	40.7 µM	37.3 µM
TASDD[pS]DIVTLEPPK (also: N-terminal FITC in fluorescence polarisation assay only) [phospho-CCPG1 FIR2 synthetic peptide (p-CCPG1 FIR2)]					0.72 µM	15.3 µM	11 µM	34.5 µM	20.6 µM	15.3 µM
